According to paper PMC3514274, “Recombinant sterol esterase from Ophiostoma piceae: an improved biocatalyst expressed in Pichia pastoris” (Microbial Cell Factories, 2012):

Key:
[1] = molecular target: recombinant sterol esterase from Ophiostoma piceae expressed in Pichia pastoris (Ophiostoma piceae); test: AUC; sedimentation equilibrium; purified protein 200 μg/mL in 25 mM sodium phosphate buffer pH 7.0, aqueous solution without detergent
[2] = molecular target: recombinant sterol esterase from Ophiostoma piceae expressed in Pichia pastoris (Ophiostoma piceae); test: AUC; sedimentation velocity; purified protein 200 μg/mL in 25 mM sodium phosphate buffer pH 7.0, aqueous solution without detergent
[3] = molecular target: deglycosylated recombinant sterol esterase from Ophiostoma piceae (OPE* treated with Endo H in non-denaturing conditions) (Ophiostoma piceae); test: as above
purified protein = substrate: CCCCCCCCCCCCCCCC(=O)Oc1ccc([N+](=O)[O-])cc1; test: purified protein; format: biochemical, Ophiostoma piceae; conditions: 100 mM sodium phosphate pH 7.0, 0.15 M NaCl, 1% (v/v) Genapol X-100, 25°C
[4] = substrate: CCCC(=O)OCC(COC(=O)CCC)OC(=O)CCC; test: pH-stat titration of released fatty acid; format: biochemical, Ophiostoma piceae; conditions: 1 mM Tris-HCl pH 7.0, 0.15 M NaCl, 5% (v/v) Genapol X-100, 25°C, substrate emulsified in detergent
Source text: (§1) pH-stat titration of released fatty acid on OPE* (recombinant sterol esterase from Ophiostoma piceae)

[5] = substrate: CCCCCCCC/C=C\CCCCCCCC(=O)OCC(COC(=O)CCCCCCC/C=C\CCCCCCCC)OC(=O)CCCCCCC/C=C\CCCCCCCC; test: pH-stat titration of released fatty acid; format: biochemical, Ophiostoma piceae; conditions: 1 mM Tris-HCl pH 7.0, 0.15 M NaCl, 5% (v/v) Genapol X-100, 25°C, substrate emulsified in detergent
Source text: as §1

[6] = substrate: CCCC(=O)O[C@H]1CC[C@@]2(C)C(=CC[C@H]3[C@@H]4CC[C@H]([C@H](C)CCCC(C)C)[C@@]4(C)CC[C@@H]32)C1; test: pH-stat titration of released fatty acid; format: biochemical, Ophiostoma piceae; conditions: 1 mM Tris-HCl pH 7.0, 0.15 M NaCl, 5% (v/v) Genapol X-100, 25°C, substrate emulsified in detergent
Source text: as §1

[7] = substrate: CCCCC/C=C\C/C=C\CCCCCCCC(=O)O[C@H]1CC[C@@]2(C)C(=CC[C@H]3[C@@H]4CC[C@H]([C@H](C)CCCC(C)C)[C@@]4(C)CC[C@@H]32)C1; test: pH-stat titration of released fatty acid; format: biochemical, Ophiostoma piceae; conditions: 1 mM Tris-HCl pH 7.0, 0.15 M NaCl, 5% (v/v) Genapol X-100, 25°C, substrate emulsified in detergent
Source text: as §1

[8] = substrate: CCCCCCCC/C=C\CCCCCCCC(=O)O[C@H]1CC[C@@]2(C)C(=CC[C@H]3[C@@H]4CC[C@H]([C@H](C)CCCC(C)C)[C@@]4(C)CC[C@@H]32)C1; test: pH-stat titration of released fatty acid; format: biochemical, Ophiostoma piceae; conditions: 1 mM Tris-HCl pH 7.0, 0.15 M NaCl, 5% (v/v) Genapol X-100, 25°C, substrate emulsified in detergent
Source text: as §1

Molecule: recombinant sterol esterase from Ophiostoma piceae expressed in Pichia pastoris (enzyme)
- stoichiometry N [1]: 2
- stoichiometry N [2]: 2

Molecule: deglycosylated recombinant sterol esterase from Ophiostoma piceae (OPE* treated with Endo H in non-denaturing conditions) (enzyme)
- stoichiometry N [3]: 2

B1: OPE* (recombinant sterol esterase from Ophiostoma piceae) (Ophiostoma piceae) (protein)
chain: TTVNVNYPEGEVVGVSVLGIESFRGVPFAQPPVGNLRLKPPVRYTENIGTKDTTGIGPSCPQMYLSTGNGELLFQLVGNLINIPLFQTATLSSEDCLTLNIQRPAGTTSNSSLPVLFWIFGGGFELGTNQYYDGIDLLTEGISLGEPFIFVAINYRVGGFGFLGGKEIKADGSSNLGLLDQRIALEWVADNIASFGGDPSKVTIWGESAGSISVFDQMALYGGNNKYKGKALFRGGIMNSGSVVPAAPVDGVKAQAIYDHVVSEAGCAGTSDTLACLRTVDYTKFLTAVNSVPGIVSYSSIALSYLPRPDGVVLIDSPEEIVKNKQYAAVPMIIGDQEDEGTLFAVLPNNITSTAKIVQYFQDLYFYNATKEQLTAFVNTYPTDITAGSPFNTGIFNELYPGFKRLAAILGDMTFTLARRAFLQLCSEVNPDVPSWSYLASYDYGFPFLGTFHATDILQVFYGVLPNYASGSIQKYYINFVTTGDPNKGAAVDIQWPQWSAKKNILQIYATKAVIVADNFRAKSYEYLYNNIGIFRI
notes: N-terminus (EA)EAYVEF + TTVNVNYPE (6 or 8 extra residues, mixed); monomer/dimer, monomeric in Genapol X-100
- Km (purified protein): 370 ± 30 µM
- kcat (purified protein): 1049 ± 28 s⁻¹
- kcat/Km (purified protein): 2.88e+06 M⁻¹ s⁻¹
- Km [4]: 5100 ± 300 µM
- kcat [4]: 1041 ± 14 s⁻¹
- kcat/Km [4]: 204000 M⁻¹ s⁻¹
- Km [5]: 710 ± 90 µM
- kcat [5]: 1362 ± 41 s⁻¹
- kcat/Km [5]: 1.92e+06 M⁻¹ s⁻¹
- Km [6]: 1600 ± 200 µM
- kcat [6]: 212 ± 7 s⁻¹
- kcat/Km [6]: 133000 M⁻¹ s⁻¹
- Km [7]: 710 ± 90 µM
- kcat [7]: 798 ± 25 s⁻¹
- kcat/Km [7]: 1.13e+06 M⁻¹ s⁻¹
- Km [8]: 690 ± 100 µM
- kcat [8]: 631 ± 21 s⁻¹
- kcat/Km [8]: 918000 M⁻¹ s⁻¹
